According to patent publication US7482016B2, “Immunogenic compositions comprising HIV-1 acetylated Tat polypeptides” (The J. David Gladstone Institutes, priority 2003, dated 2009):

Columns and labels:
[1] = test system: Jurkat T cells expressing FLAG-tagged Tat from the HIV LTR; test: Western blot of lysates of Jurkat T cells expressing FLAG-tagged Tat after TSA; assay type: cell-based; details: 400 nM TSA, 16 hours
Method: Immunoglobulin G were purified on Gammabind Plus Sepharose (Amersham).
Next, cellular extracts were analyzed with anti-AcARM antibodies. A cell line was generated that constitutively expressed a FLAG-tagged Tat protein from the HIV LTR by transducing Jurkat T cells with a Tat-encoding lentiviral vector (Jordan et al., 2001, supra). Following treatment with trichostatin A (TSA), a specific inhibitor of cellular HDACs, AcTat was detected by western blot analysis with anti-AcARM mAbs in cells expressing Tat, but not in control cells expressing GFP (FIG. 1D). To enhance the signal, immunoprecipitation was performed with anti-FLAG monoclonal antibodies before western blot analysis. Again, AcTat was detected in Tat-expressing, but not in GFP control cells (FIG. 1E). Expression of AcTat was enhanced when cells were treated with TSA.

[2] = test system: TAR-mutant LTR-luciferase, RSV LTR-luciferase, 5×UAS/Gal4-VP16, CMV-GFP, LTR alone in HeLa cells; test: Microinjection control experiments with Tat-independent reporters; assay type: cell-based
Method: Microinjection was performed at room temperature with a Zeiss automated injection system (Carl Zeiss, Oberkochen, Germany). Samples were prepared as a 20111 injection mix containing the luciferase reporter constructs (100 ng/ml) and CMV-GFP (50 ng/ml) constructs in sterile water or phosphate buffer. In individual experiments α-AcARM or preimmune immunoglobulins (5 mg/ml), Lys-CoA (8 μM) or synthetic Tat (30 μg/ml) were included in the mix. Four hours after injection, cells were examined on a Zeiss Axiovert microscope to determine the number of GFP-positive cells, washed in cold phosphate buffer and stored at −70° C. for luciferase assays (Promega).
A GFP-expressing construct (CMV-GFP) was coinjected to count the number of injected cells before analysis of luciferase activity.

[3] = test system: Tat transactivation of the HIV LTR in HeLa-Tat cells; test: Nuclear microinjection of HIV LTR-luciferase reporter, Tat transactivation; assay type: cell-based; details: 8 μM solution microinjected into HeLa-Tat cells, three independent experiments
Method: Microinjection experiments were previously described (Dorr et al. (2002), supra). Microinjection was performed at room temperature with a Zeiss automated injection system (Carl Zeiss, Oberkochen, Germany). Samples were prepared as a […] injection mix containing the luciferase reporter constructs (100 ng/ml) and CMV-GFP (50 ng/ml) constructs in sterile water or phosphate buffer. In individual experiments α-AcARM or preimmune immunoglobulins (5 mg/ml), Lys-CoA (8 μM) or synthetic Tat (30 μg/ml) were included in the mix. Four hours after injection, cells were examined on a Zeiss Axiovert microscope to determine the number of GFP-positive cells, washed in cold phosphate buffer and stored at −70° C. for luciferase assays (Promega). The α-p24 monoclonal antibody (183-H12-5C) was used in control microinjections with α-AcARM mAbs and was obtained through the AIDS Research and Reference Reagent Program, NIH (Chesebro et al. (1992) J Virol 66, 6547-6554). […]
FIGS. 3A-D. (FIG. 3A) Microinjection of the p300-HAT inhibitor Lys-CoA (8 μM), HIV LTR-luciferase and CMV-GFP into HeLa or HeLa-Tat cells. Each value is expressed as a percentage of the value obtained in control cells, injected with LTR-luciferase and CMV-GFP alone. […]

[4] = test system: p300-dependent transcription of MyoD RNA; details: microinjected into nuclei of oocytes; cited from earlier work
[5] = molecular target: T1, RNAPII (Homo sapiens, UniProt P24928); test: RNA polymerase II binding in 293 nuclear extracts; details: biotinylated proteins
T1 construct: analyzed with modification-specific antibodies directed against the CTD of RNAPII; endogenous in cells; host or cells: 293 nuclear extract
Method: Synthetic biotinylated nonacetylated and acetylated Tat proteins were incubated for 2 hours with 50 μl 293 nuclear extracts prepared according to (Dignam et al. (1983) Methods Enzymol. 101, 582-598) in buffer conditions described in (Mavankal et al., (1996) Proc. Natl. Acad. Sci. USA 93, 2089-2094). Complexes were collected with streptavidin-sepharose beads, separated by SDS-PAGE electrophoresis and analyzed with α-RNAPII antibodies (clones H14 and 8WG16; CPR Inc) or with α-AcARM mAbs and HRP-conjugated Streptavidin (Jackson Immunoresearch Laboratories).
(§1) FIGS. 4A-D. (FIG. 4A) Bulge-dependent binding of Tat to TAR. Radiolabeled riboprobes corresponding to the HIV TAR element or a mutated form (TARΔBulge) were incubated with 0, 40, 80 and 160 ng of Tat and analyzed on a 4% Tris-glycine gel. (FIG. 4B) High-affinity binding of AcTat to TAR RNA, but […]. The wild-type TAR probe was incubated with increasing amounts of synthetic Tat or AcTat (0, 1.6 ng, 8 ng, 40 ng, and 200 ng) in the absence or presence of recombinant CyclinT1. The same experiment with a mutated TAR RNA probe containing mutations in the apical loop is shown below (TARΔLoop). (FIG. 4C) Binding of AcTat to CyclinT1 in the absence of TAR. Increasing amounts (0, 0.5 μg, 1 μg, and 2 μg) of Tat or AcTat were incubated with GST-CyclinT1, Tat-binding-deficient GST-CyclinT1 (C261A) or GST alone. Bound proteins were analyzed with monoclonal anti-Tat antibodies, directed against the N-terminus of Tat. 50% of input Tat proteins are shown. (FIG. 4D) Binding of Tat and AcTat to RNAPII. Biotinylated Tat or AcTat proteins (0, 1, 2, 4, 8 μg) were incubated with nuclear extracts, precipitated with streptavidin-sepharose and analyzed with modification-specific antibodies directed against the CTD of RNAPII. AcTat was detected with monoclonal anti-AcARM antibodies. Both Tat proteins reacted with horseradish peroxidase-conjugated streptavidin (SA-HRP).

[6] = test system: HIV TAR RNA; test: RNA gel mobility shift assay; assay type: binding; details: for effect of mutations in the loop of TAR on binding: TARΔLoop probe; for binding to wild-type TAR RNA: absence of CyclinT1; for effect of addition of CyclinT1 on affinity for wild-type TAR RNA: recombinant CyclinT1 present
Method: (§2) TAR RNAs were synthesized from HindIII-linearized pGEM3Zf-TAR constructs, which contained an oligonucleotide corresponding to the HIVLAI TAR sequence (nucleotides +17 to +44) ligated into the EcoR1-HindIII cloning sites, downstream of the T7 RNA polymerase start site. In the TARΔbulge construct, thymidine 23 was replaced with an adenosine, and the TARΔloop construct contained C30→A, T31→G, and G33→T mutation. In vitro transcription reactions were performed with the Riboprobe system (Promega, Madison, Wis.) with 1 μg of linearized plasmids and 50 μCi of ^32P-CTP (20 μCi/μl; Amersham Pharmacia Biotech). Transcripts were treated with 2 U DNAse I (Promega), extracted with a phenol:chloroform mixture, and purified over a Nick column (Amersham Pharmacia Biotech). Gel mobility reactions (final volume, 16 μl) were carried out at 30° C. as described (Wei et al. (1998) Cell 92, 451-462) with 2×10^4 cpm TAR probes/reaction with indicated concentrations of Tat proteins and 160 ng of GST-cleaved CyclinT1 (amino acids 1-303) (Garber et al. (1998) Curr Opin Immunol 11, 460-465). RNA-binding complexes were separated on a pre-run 4% Tris-glycine gel.
as §1

[7] = molecular target: T2, GST-CyclinT1 (Homo sapiens, UniProt O60563, C261A); test: GST binding (pulldown) assay
T2 construct: Full-length GST-CyclinT1, GST-CyclinT1C261A or GST alone were expressed in the BL21 strain of Escherichia coli; made in house; host or cells: Escherichia coli BL21
T2 sequence (O60563 whole entry C261A): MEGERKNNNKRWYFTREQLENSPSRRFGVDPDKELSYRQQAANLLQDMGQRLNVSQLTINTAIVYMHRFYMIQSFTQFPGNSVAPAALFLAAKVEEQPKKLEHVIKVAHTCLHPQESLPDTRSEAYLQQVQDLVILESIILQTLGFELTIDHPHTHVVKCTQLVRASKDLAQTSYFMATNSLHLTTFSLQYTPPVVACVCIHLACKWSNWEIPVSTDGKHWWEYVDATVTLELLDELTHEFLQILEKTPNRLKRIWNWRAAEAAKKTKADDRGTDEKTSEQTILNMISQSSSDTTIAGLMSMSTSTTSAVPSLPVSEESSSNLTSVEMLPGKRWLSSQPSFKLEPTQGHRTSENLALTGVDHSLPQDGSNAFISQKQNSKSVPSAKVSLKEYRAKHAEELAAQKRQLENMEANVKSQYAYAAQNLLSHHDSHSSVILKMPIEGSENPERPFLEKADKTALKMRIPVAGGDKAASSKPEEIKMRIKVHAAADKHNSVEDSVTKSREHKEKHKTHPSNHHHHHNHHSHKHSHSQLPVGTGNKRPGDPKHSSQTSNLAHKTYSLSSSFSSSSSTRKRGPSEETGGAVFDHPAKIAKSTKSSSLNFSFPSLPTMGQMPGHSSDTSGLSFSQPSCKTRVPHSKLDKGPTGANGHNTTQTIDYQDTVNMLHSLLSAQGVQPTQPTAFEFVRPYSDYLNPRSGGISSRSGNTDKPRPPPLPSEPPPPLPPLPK
Method: (§3) Full-length GST-CyclinT1, GST-CyclinT1C261A or GST alone were expressed in the BL21 strain of Escherichia coli and purified on glutathione-Sepharose beads (Amersham Pharmacia Biotech) as described (Herrmann and Rice (1993) Virology 197, 601-608). For binding assays ˜1 μg of bead-coupled GST-CyclinT1, GST-CyclinT1C261A or GST alone was incubated with Tat and AcTat in 100 μl modified Buffer C for 3.5 hr at 4°. Buffer C is described in (Fujinaga et al. (1999) Proc. Natl. Acad. Sci. USA 96, 1285-1290) and was used without ZnCl2 and SDS. Beads were washed three times with modified Buffer C containing 1M KCl, boiled in Laemmli buffer and supernatant was analyzed by immunoblotting using monoclonal anti-Tat antibodies (clone AC11.AE12; CPR Inc.).
as §1

[8] = molecular target: T3, GST-CyclinT1 (Homo sapiens, UniProt O60563); test: GST binding (pulldown) assay; details: absence of TAR
T3 construct: Full-length GST-CyclinT1, GST-CyclinT1C261A or GST alone were expressed in the BL21 strain of Escherichia coli; made in house; host or cells: Escherichia coli BL21
T3 sequence (O60563 whole entry): as the sequence (O60563 whole entry C261A) above, with A261C counted along it
Method: as §3, §1

[9] = molecular target: T4, Tat/TAR/CyclinT1 complex (Homo sapiens, UniProt O60563); test: RNA gel shift with recombinant CyclinT1, ternary complex formation; assay type: binding; details: presence of CyclinT1
T4 construct: 160 ng of GST-cleaved CyclinT1 (amino acids 1-303); GST (N, cleaved yes); made in house
T4 sequence (O60563 1-303, one chain of several): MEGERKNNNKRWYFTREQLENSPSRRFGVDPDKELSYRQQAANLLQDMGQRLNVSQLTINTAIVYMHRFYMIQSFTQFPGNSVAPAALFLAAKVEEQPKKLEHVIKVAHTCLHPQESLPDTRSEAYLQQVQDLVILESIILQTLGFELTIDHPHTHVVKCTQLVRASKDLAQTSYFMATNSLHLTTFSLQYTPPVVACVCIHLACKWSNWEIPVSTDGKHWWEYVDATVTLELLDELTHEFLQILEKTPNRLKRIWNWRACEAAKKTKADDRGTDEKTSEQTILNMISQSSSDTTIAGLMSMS
Method: as §2, with “Gel mobility reactions (final volume, 16 μl) were carried out at 30° C. as described (Wei et al. (1998) Cell 92, 451-462) with 2×10^4 cpm TAR probes/reaction with indicated concentrations of Tat proteins and 160 ng of GST-cleaved CyclinT1 (amino acids 1-303) (Garber et al. (1998) Curr Opin Immunol 11, 460-465). RNA-binding complexes were separated on a pre-run 4% Tris-glycine gel.” left out
FIGS. 4A-D. (FIG. 4A) Bulge-dependent binding of Tat to TAR. Radiolabeled riboprobes corresponding to the HIV TAR element or a mutated form (TARΔBulge) were incubated with 0, 40, 80 and 160 ng of Tat and analyzed on a 4% Tris-glycine gel. […] Bound proteins were analyzed with monoclonal anti-Tat antibodies, directed against the N-terminus of Tat. […] Biotinylated Tat or AcTat proteins (0, 1, 2, 4, 8 μg) were incubated with nuclear extracts, precipitated with streptavidin-sepharose and analyzed with modification-specific antibodies directed against the CTD of RNAPII. AcTat was detected with monoclonal anti-AcARM antibodies. […]

Molecule	Tat expression (anti-FLAG immunodetection) [1]	expression of AcTat ([1]; anti-FLAG immunoprecipitation, anti-AcARM blot)	effect on the LTR alone ([2]; coinjected into HeLa cells (no Tat))	effect on coinjected CMV-GFP reporter ([2]; same concentration (8 μM))	inhibition of Tat activity on the HIV LTR [3]	p300-dependent transcription of MyoD RNA [4]	binding to nonphosphorylated RNAPII [5]	binding to bulge-mutant TAR RNA ([6]; TARΔBulge probe)	effect of mutations in the loop of TAR on binding [6]	binding to wild-type TAR RNA [6]	effect of addition of CyclinT1 on affinity for wild-type TAR RNA [6]	binding to mutant CyclinT1 (C261A) or GST alone [7]	binding to wild-type GST-CyclinT1 [8]	formation of the Tat/TAR/CyclinT1 ternary complex [9]	interaction with hyperphosphorylated RNAPII complex [5]	concentration at which retarded bands form, relative to unacetylated Tat ([6]; wild-type TAR probe)
CC(/C=C/C(=O)NO)=C\[C@@H](C)C(=O)c1ccc(N(C)C)cc1 [TSA, trichostatin A]	overall upregulation	enhanced														
CC(=O)N[C@@H](CCCCNC(=O)CSCCNC(=O)CCNC(=O)[C@H](O)C(C)(C)COP(=O)(O)OP(=O)(O)OC[C@H]1O[C@@H](n2cnc3c(N)ncnc32)[C@H](O)[C@@H]1OP(=O)(O)O)C(N)=O [Lys-CoA]			no effect	no effect	60-70%	efficiently blocked										
Tat: synthetic unacetylated 72-amino acid Tat, sequence derived from isolate HIV-1BRU (peptide) MEPVDPRLEPWKHPGSQPKTACTTCYCKKCCFHCQVCFTTKALGISYGRKKRRQRRRPPQGSQTHQVSLSKQ							no binding	blocked	little effect	high affinity	did not alter	Neither Tat nor AcTat bound	equal affinities	formed the expected Tat/TAR/CyclinT1 complex		
AcTat: synthetic Tat protein (HIV-1BRU sequence, 72 amino acids) containing a single acetylated lysine at position 50 (peptide) MEPVDPRLEPWKHPGSQPKTACTTCYCKKCCFHCQVCFTTKALGISYGRKKRRQRRRPPQGSQTHQVSLSKQ							no binding		little effect	affinities equal to that of unacetylated Tat	did not alter	Neither Tat nor AcTat bound	equal affinities	could not	higher affinity than Tat	one-third
